We go through 2 molecules from patent US20220119490A1 (Genentech, published 2022).

The target of assay [1] is T1, PTPRD G203E K204E variant extracellular domain (human, UniProt P23468 21-1265).
T1 construct: extracellular domain; also called G203E/K204E double mutant; IG2 mutant
T1 sequence (looked up): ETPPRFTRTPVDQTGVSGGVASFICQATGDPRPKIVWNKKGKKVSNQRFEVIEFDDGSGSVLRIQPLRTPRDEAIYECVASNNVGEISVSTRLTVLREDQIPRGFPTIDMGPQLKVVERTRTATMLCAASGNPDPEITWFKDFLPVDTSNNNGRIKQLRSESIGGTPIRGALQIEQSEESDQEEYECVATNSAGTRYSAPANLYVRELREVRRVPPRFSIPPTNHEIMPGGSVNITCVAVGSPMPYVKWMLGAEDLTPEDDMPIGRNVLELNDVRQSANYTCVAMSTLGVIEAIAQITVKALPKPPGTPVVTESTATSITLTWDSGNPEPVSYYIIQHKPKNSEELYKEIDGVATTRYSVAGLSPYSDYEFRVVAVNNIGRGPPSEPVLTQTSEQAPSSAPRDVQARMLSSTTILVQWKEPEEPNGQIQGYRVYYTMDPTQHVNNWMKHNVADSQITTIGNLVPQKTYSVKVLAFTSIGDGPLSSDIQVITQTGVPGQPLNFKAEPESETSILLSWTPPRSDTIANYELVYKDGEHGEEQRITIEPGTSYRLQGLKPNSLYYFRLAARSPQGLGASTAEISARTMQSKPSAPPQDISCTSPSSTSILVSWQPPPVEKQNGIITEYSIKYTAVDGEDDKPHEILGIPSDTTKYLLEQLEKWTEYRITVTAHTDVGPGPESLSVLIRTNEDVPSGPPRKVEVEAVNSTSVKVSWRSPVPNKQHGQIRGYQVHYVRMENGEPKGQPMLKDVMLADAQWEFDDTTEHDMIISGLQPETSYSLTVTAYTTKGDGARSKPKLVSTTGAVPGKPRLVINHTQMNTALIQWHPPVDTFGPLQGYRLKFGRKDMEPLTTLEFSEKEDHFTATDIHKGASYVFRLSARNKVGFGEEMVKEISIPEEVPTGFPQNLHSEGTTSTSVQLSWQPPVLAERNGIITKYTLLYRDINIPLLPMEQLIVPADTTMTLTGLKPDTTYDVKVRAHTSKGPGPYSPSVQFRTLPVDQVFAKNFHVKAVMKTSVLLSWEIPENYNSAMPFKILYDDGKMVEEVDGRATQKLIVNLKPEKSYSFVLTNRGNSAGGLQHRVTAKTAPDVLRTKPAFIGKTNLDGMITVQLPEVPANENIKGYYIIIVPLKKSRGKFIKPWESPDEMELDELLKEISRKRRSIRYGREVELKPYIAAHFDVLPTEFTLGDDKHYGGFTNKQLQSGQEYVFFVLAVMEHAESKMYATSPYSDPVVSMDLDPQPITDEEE
As to the kind of experiment: extracellular interaction screen: pentameric PTPRD variant ECD on ECD-Fc prey (FIG. 5L).

Assay [2] has as its target T2, PTPRO expressed on cells (human, UniProt Q16827 30-1216).
T2 construct: whole, on cells
T2 sequence (looked up): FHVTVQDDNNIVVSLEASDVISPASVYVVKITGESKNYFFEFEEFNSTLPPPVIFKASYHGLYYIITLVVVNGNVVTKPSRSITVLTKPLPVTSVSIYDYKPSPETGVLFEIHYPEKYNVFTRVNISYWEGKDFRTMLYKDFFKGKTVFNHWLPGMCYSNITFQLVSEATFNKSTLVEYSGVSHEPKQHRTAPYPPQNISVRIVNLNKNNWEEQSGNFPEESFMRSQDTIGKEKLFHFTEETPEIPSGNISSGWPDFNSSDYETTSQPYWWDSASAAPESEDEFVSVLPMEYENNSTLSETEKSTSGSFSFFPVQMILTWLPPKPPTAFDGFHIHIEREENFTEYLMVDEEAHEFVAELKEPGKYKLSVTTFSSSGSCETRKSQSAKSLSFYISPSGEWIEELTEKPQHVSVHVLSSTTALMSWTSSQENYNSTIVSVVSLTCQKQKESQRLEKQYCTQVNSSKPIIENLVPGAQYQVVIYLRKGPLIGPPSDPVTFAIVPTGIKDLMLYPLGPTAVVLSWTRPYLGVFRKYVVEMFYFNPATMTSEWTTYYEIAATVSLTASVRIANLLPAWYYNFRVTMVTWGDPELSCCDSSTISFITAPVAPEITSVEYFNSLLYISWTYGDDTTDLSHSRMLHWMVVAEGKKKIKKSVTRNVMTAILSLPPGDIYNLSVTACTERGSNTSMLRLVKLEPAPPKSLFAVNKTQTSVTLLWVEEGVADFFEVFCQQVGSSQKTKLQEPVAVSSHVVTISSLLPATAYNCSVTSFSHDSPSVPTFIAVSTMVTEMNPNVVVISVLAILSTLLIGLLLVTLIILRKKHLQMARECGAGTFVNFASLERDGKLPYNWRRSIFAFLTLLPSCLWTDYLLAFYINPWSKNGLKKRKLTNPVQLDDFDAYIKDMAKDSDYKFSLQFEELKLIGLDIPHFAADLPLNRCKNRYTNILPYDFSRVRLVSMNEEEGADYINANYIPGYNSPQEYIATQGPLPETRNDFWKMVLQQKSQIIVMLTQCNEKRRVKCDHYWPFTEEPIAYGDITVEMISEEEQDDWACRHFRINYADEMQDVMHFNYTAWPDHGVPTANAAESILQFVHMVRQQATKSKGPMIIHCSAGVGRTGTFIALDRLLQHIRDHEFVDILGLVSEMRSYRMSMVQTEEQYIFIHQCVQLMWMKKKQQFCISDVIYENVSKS
As to the kind of experiment: cell surface interaction assay: query ECD tetramerised with fluorescent streptavidin on transfected cells, immunofluorescence. An excerpt: (§1) FIG. 3H is a schematic showing the design of the cell surface interaction assay.
(§2) Experiments shown are representative of two independent assays. […] Scale bar=50 μm.

Assay [3] concerns the target T3, PTPRZ1 expressed on cells (human, UniProt P23471 25-2315).
T3 construct: whole, on cells
Described as above.
From the text: as §1, §2

In assay [4] the target is T4, PTPRG expressed on cells (human, UniProt P23470 20-1445).
T4 construct: whole, on cells
The description is as above.
From the text: as §1, §2

T4 sequence (P23470 20-1445): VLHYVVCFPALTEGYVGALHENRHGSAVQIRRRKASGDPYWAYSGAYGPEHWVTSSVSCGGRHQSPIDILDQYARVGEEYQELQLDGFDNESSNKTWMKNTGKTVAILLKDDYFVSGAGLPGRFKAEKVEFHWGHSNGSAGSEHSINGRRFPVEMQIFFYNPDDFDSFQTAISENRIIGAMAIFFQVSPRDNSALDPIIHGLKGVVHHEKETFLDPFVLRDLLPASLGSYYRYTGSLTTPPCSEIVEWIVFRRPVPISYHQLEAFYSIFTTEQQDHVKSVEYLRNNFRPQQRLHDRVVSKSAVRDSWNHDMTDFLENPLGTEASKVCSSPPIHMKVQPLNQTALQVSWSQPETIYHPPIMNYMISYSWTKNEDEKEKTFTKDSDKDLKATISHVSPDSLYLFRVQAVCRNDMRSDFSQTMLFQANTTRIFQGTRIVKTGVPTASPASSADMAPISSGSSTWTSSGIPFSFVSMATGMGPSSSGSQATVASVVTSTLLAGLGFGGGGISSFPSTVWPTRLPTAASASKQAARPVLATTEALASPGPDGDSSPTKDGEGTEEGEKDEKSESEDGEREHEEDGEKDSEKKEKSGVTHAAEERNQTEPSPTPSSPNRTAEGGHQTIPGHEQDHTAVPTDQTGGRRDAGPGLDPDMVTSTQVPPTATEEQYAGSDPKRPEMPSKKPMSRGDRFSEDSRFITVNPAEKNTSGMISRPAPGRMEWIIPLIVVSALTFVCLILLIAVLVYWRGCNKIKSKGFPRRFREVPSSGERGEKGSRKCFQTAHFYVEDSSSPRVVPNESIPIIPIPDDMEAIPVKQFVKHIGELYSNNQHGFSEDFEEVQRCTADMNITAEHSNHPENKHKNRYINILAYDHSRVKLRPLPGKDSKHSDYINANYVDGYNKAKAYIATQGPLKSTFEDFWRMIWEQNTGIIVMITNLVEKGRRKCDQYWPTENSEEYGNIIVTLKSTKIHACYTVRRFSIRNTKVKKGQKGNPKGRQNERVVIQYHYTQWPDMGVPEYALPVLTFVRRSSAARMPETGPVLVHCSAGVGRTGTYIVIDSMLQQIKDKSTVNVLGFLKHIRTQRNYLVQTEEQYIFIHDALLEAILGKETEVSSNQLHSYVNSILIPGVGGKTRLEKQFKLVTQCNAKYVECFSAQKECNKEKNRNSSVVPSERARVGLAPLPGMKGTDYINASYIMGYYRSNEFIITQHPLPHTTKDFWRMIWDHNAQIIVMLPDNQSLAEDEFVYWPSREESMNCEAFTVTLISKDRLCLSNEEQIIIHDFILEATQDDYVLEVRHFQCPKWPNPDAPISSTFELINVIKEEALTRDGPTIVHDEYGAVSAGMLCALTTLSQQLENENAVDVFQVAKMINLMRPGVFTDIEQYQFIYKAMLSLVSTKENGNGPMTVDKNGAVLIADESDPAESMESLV
T3 sequence (P23471 25-2315): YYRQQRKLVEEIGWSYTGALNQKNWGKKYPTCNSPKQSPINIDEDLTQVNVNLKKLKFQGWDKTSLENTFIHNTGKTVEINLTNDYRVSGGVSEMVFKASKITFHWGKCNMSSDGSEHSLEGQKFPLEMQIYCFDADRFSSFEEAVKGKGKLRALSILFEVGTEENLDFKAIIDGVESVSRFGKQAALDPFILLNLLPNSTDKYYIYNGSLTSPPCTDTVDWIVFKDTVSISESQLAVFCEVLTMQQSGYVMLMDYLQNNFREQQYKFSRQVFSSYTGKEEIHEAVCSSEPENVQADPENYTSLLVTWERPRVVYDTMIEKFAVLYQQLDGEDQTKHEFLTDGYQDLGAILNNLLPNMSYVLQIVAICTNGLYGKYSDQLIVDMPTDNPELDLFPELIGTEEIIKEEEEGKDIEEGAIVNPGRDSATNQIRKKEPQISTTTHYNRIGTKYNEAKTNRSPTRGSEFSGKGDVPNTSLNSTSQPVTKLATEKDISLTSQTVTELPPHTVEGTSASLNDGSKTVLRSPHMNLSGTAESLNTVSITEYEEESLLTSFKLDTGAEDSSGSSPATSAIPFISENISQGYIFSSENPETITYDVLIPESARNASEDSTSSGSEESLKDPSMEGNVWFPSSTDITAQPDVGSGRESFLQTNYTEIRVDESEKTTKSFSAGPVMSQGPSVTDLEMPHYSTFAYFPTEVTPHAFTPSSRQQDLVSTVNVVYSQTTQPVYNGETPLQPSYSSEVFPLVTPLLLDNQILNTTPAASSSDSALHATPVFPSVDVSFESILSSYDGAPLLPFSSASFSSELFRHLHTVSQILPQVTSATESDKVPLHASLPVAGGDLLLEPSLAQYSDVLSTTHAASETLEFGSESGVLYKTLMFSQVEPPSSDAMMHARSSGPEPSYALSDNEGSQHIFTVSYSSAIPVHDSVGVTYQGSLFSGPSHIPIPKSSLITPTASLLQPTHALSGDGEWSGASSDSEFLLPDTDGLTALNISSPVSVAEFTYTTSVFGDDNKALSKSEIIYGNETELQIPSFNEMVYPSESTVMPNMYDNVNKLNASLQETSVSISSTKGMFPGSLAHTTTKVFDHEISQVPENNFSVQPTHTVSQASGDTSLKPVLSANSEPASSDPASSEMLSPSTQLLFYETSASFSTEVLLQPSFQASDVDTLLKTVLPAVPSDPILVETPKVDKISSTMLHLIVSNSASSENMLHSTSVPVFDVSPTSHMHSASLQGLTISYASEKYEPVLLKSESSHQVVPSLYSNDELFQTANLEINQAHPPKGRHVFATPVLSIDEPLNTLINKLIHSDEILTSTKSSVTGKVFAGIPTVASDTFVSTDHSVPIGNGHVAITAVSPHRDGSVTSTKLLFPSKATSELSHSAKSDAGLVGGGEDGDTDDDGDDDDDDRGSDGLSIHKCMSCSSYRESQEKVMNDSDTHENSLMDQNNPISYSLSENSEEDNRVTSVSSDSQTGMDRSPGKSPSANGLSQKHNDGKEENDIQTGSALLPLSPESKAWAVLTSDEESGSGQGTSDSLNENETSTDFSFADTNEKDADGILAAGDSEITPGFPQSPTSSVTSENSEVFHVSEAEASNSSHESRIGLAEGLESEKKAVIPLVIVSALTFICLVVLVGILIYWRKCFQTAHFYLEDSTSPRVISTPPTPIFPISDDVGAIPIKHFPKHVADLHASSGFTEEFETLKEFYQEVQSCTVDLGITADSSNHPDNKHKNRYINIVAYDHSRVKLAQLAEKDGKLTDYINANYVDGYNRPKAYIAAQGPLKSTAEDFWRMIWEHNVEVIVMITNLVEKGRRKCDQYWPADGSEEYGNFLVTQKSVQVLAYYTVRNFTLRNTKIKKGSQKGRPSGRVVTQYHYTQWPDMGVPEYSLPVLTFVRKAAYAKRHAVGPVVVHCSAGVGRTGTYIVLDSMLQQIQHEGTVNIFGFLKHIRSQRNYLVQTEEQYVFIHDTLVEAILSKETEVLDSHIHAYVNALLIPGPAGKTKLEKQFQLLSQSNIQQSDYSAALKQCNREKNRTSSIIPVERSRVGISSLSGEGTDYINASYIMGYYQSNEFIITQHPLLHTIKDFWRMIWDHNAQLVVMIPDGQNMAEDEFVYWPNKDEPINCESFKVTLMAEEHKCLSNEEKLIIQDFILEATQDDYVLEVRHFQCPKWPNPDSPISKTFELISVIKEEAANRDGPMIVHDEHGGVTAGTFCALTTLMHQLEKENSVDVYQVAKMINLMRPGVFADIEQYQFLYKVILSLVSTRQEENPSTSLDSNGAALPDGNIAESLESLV

B1: LRFN5 extracellular domain (receptor, human, UniProt Q96NI6 18-529, looked up)
chain: QICPKRCVCQILSPNLATLCAKKGLLFVPPNIDRRTVELRLADNFVTNIKRKDFANMTSLVDLTLSRNTISFITPHAFADLRNLRALHLNSNRLTKITNDMFSGLSNLHHLILNNNQLTLISSTAFDDVFALEELDLSYNNLETIPWDAVEKMVSLHTLSLDHNMIDNIPKGTFSHLHKMTRLDVTSNKLQKLPPDPLFQRAQVLATSGIISPSTFALSFGGNPLHCNCELLWLRRLSREDDLETCASPPLLTGRYFWSIPEEEFLCEPPLITRHTHEMRVLEGQRATLRCKARGDPEPAIHWISPEGKLISNATRSLVYDNGTLDILITTVKDTGAFTCIASNPAGEATQIVDLHIIKLPHLLNSTNHIHEPDPGSSDISTSTKSGSNTSSSNGDTKLSQDKIVVAEATSSTALLKFNFQRNIPGIRMFQIQYNGTYDDTLVYRMIPPTSKTFLVNNLAAGTMYDLCVLAIYDDGITSLTATRVVGCIQFTTEQDYVRCHFMQSQFLGGTM
notes: extracellular domain; Streptavidin tetramer in cell assay; ECD-Fc prey in the variant screen; also called LFRN5
On to B1, for which the binding result in assay [1], in assay [2], in assay [3] and in assay [4] was “no binding” each time.

B2: LRRC4B extracellular domain (receptor, human, UniProt Q9NT99 36-576, looked up)
chain: AGGGGVAVTSAAGGGSPPATSCPVACSCSNQASRVICTRRDLAEVPASIPVNTRYLNLQENGIQVIRTDTFKHLRHLEILQLSKNLVRKIEVGAFNGLPSLNTLELFDNRLTTVPTQAFEYLSKLRELWLRNNPIESIPSYAFNRVPSLRRLDLGELKRLEYISEAAFEGLVNLRYLNLGMCNLKDIPNLTALVRLEELELSGNRLDLIRPGSFQGLTSLRKLWLMHAQVATIERNAFDDLKSLEELNLSHNNLMSLPHDLFTPLHRLERVHLNHNPWHCNCDVLWLSWWLKETVPSNTTCCARCHAPAGLKGRYIGELDQSHFTCYAPVIVEPPTDLNVTEGMAAELKCRTGTSMTSVNWLTPNGTLMTHGSYRVRISVLHDGTLNFTNVTVQDTGQYTCMVTNSAGNTTASATLNVSAVDPVAAGGTGSGGGGPGGSGGVGGGSGGYTYFTTVTVETLETQPGEEALQPRGTEKEPPGPTTDGVWGGGRPGDAAGPASSSTTAPAPRSSRPTEKAFTVPITDVTENALKDLDDVMKTTK
notes: extracellular domain; ECD-Fc prey; also called NGL-3; netrin-G ligand-3
Take B2: the binding result in assay [1] is given as “no binding”.
